Test results: patent US20210145978A1, “ANTI-CD71 ACTIVATABLE ANTIBODY DRUG CONJUGATES AND METHODS OF USE THEREOF” (AbbVie Inc., priority 2017, published 2021)

Key:
[1] = Non-GLP pilot toxicity studies in cynomolgus monkeys; type: in vivo, cynomolgus monkey
Procedure: Terminal necropsies were performed on the test animals on day 29 (7 days after the last dose). Assessments during the study included clinical signs, body weight, food consumption, clinical pathology, anatomic pathology, TK, and immunogenicity.

[2] = Tolerability and stability of AADCs and ADC in cynomolgus monkeys (Example 10); type: in vivo, cynomolgus monkey
Procedure: In this study, cynomolgus monkeys were treated intravenously with the indicated AADC or ADC with the indicated dosage at days 1 and […]. Only one dose was tolerated for anti-CD71 TF02.13-3011-vc-MMAE AADC and only one dose was administered for anti-CD71-vc-MMAE E2 (i.e. having a DAR of ˜2) ADC. The stability of the activatable antibodies (i.e. total activatable antibody vs intact activatable antibody) in the samples obtained from each animals was performed as described in Example 9 using reverse phase LC/MS/MS)
The body weight loss was determined on the lowest measure weight following the 1st administered dose. The baseline neutrophil count was at least 1000 per μL.

[3] = tested on: cynomolgus CD71 on CHO cells; test: FACS binding to cells, Table 3B; conditions: binding curves of FIG. 3D; read-out: CHO w/ Cynomolgus CD71 FACS EC50
Source text: (§1) FIGS. 3C and 3D show in a FACS assay the exemplary results that anti-CD71 activatable antibodies of the present disclosure and anti-CD71 conjugated activatable antibodies of the present disclosure bind cells expressing human CD71 (FIG. 3C) and cynomolgus CD71 (FIG. 3D) with a higher dissociation constant and lower affinity than that of the corresponding protease-activated anti-CD71 activatable antibody or protease-activated anti-CD71 conjugated activatable antibody of the present disclosure.
(§2) In the exemplary study shown in FIGS. 3C and 3D, the binding of the antibodies of the present disclosure to the indicated cell lines were performed using a standard FACS labelling method. […] In addition, the binding affinity of the anti-CD71 activatable antibody (anti-CD71 TF02.13-2011 (Act)) and the E2 (i.e. having a DAR of ˜2) anti-CD71 conjugated activatable antibody (anti-CD71 TF02.13-2011-vcMMAE E2 (Act)) were also assayed following protease-activation that cleaved the cleavable moiety therein. Each test article was applied at the indicated concentrations and subsequently detected with an Alexa Fluor 647 labeled goat anti-human IgG secondary antibody.

[4] = target: T1, human CD71 on H292 cells (Homo sapiens, UniProt P02786); test: FACS binding to cells, Table 3B; conditions: binding curves of FIG. 3C
T1 construct: endogenous in cells; host or cells: NCI-H292
T1 sequence (P02786 whole entry): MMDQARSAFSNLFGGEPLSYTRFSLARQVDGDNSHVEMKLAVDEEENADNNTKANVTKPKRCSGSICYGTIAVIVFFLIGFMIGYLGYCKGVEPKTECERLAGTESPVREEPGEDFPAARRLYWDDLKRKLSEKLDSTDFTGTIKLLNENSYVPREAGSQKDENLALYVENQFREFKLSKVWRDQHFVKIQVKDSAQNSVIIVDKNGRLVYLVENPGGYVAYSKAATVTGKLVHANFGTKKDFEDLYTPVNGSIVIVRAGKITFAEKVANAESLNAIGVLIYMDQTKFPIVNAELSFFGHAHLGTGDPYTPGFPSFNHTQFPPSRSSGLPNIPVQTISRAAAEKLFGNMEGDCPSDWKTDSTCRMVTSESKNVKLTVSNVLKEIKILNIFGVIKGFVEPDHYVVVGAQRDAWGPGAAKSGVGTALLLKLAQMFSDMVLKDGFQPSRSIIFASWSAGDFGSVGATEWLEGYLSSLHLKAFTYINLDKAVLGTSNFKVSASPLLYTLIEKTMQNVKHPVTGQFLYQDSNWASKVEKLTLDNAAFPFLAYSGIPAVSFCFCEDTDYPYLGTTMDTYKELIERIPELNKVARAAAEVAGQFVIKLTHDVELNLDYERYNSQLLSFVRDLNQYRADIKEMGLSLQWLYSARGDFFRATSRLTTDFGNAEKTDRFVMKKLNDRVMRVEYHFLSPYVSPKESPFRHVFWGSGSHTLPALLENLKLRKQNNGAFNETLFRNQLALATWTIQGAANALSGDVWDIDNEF
Source text: as §1, §2

[5] = target: T2, CD71 on NCI H292 cells (Homo sapiens, UniProt P02786); test: FACS binding to NCI H292 cells, masking efficiency (Example 3); conditions: relative to parental Ab 21.12
T2 construct: endogenous in cells; host or cells: NCI-H292
T2 sequence (P02786 whole entry): as above
Procedure: Binding of anti-CD71 activatable antibodies of the present disclosure to the NCI H292 (also referred to herein as H292) cell line was evaluated using FACS. Briefly, cells were labeled with huCD71 antibody or activatable antibody at a range of concentrations and subsequently detected with an Alexa Fluor 647 labeled goat anti-human IgG secondary antibody to determine a binding curve.

[6] = 0.6 mg/kg, q3wx2, non-GLP study

B1: Ab21.12-vc-MMAE E2: unmasked parental anti-CD71 antibody drug conjugate (ADC), Ab21.12 with vc-MMAE (conjugate)
VH: QVQLVQSGAEVKKPGASVKMSCKASGYTFTSYWMHWVRQAPGQGLEWIGAIYPGNSETGYAQKFQGRATLTADTSTSTAYMELSSLRSEDTAVYYCTRENWDPGFAFWGQGTLITVSS
VL: DIQMTQSPSSLSASVGDRVTITCSASSSVYYMYWFQQKPGKAPKLWIYSTSNLASGVPSRFSGSGSGTDYTLTISSMQPEDFATYYCQQRRNYPYTFGQGTKLEIK
modifications: vc-MMAE conjugate, DAR ~2
notes: unmasked parental anti-CD71 antibody drug conjugate (ADC), Ab21.12 with vc-MMAE
With B1 the “Average neutrophil count ± SD” value [1, 6] was 280 ± 42, the Body weight loss [1, 6] was 4% and the Tolerability [1, 6] was “Tolerated”. For the same molecule, the “Average neutrophil count ± SD” value ([1]; 2 mg/kg, q3wx2, non-GLP study) was 70, the Body weight loss ([1]; 2 mg/kg, q3wx2, non-GLP study) was 6% and the test article-related findings ([1]; 0.6 to 18 mg/kg IV bolus) was “consisted primarily of hematologic toxicity”. The “toxicity (hunched posture, decreased activity, body temperature elevation)” value ([1]; 6 and 2 mg/kg) was “Severe toxicity”, the “time to lack of tolerability after a single dose” value ([1]; single dose at 2 mpk) was no more than 8 days and the mortality ([1]; single dose at >2 mg/kg) was “mortality attributed to secondary infection was observed”. For the same molecule, the “Avg. Neutrophil Count ± SD (per μL)” value ([2]; 2 mg/kg IV, one dose, baseline at least 1000 per μL) was 70 per μL, the “Body weight loss” value ([2]; 2 mg/kg IV, one dose, lowest weight after 1st dose) was roughly 8% and the “lethality, time after the first dose” value ([2]; non-masked E2 ADC, cynomolgus monkeys (2 mg/kg in Table 5)) was no more than 8 days.

B2: Ab 21.12-vc-M MAE: anti-CD71 Ab 21.12 conjugated to vc-MMAE; DAR not stated in Table 3B (conjugate)
VH: B1 VH
VL: B1 VL
modifications: vc-MMAE conjugate
For B2, the EC50 [3] was 0.291 nM.

B3: Ab21.12: humanized anti-CD71 antibody, VH of SEQ ID NO: 5 and VL of SEQ ID NO: 7 (antibody, V domains shown)
VH: B1 VH
VL: B1 VL
In the case of B3, the EC50 [4] is reported as 1.02 nM and the “Masking Efficiency” value [5] is reported as 1.
